How the values were obtained:
[1] = Dehydrogenase activity measurement of AgPEAOX (1-MPES/WST-1, A438); type: biochemical; settings: pH 8.5; final concentration of 50 mM EAP; 37° C.
Description: After incubation of 609 μl of the reagent consisting of the composition of Table 3 for 5 minutes at 37° C., 21 μl of the substrate solution (1500 mM EAP) was added and mixed, and the amount of change at A438 (ΔAS) per 1 minute at 37° C. was measured using the spectrophotometer (U-3900, manufactured by Hitachi High-Tech Science Corporation).
Next, 21 μl of ion-exchanged water was added instead of the substrate solution and mixed, and the amount of change at A438 (ΔA0) per 1 minute at 37° C. was measured. 1-methoxy-5-ethylphenazinium ethyl sulfate (1-MPES), and 2-(4-iodophenyl)-3-(4-nitrophenyl)-5-(2,4-disulfophenyl)-2H-tetrazolium monosodium salt (WST-1) manufactured by DOJINDO LABORATORIES were used.
Dehydrogenase activity was calculated based on the following formula: Dehydrogenase activity (U/ml)=(ΔAS−ΔA0)×630×df/(37.0×x)=17.0×(ΔAS−ΔA0)×df/x • 37.0: Millimolar extinction coefficient (mM^−1 cm^−1) of WST-1 formazan dye for 438 nm-Wavelength Light • df: Dilution rate of enzyme solution (Quantification of EAP by AgPEAOX)

[2] = Oxidase activity measurement and pH dependence of AgPEAOX (4-AA/TOOS/POD, A555); type: biochemical
Description: Oxidase activity was measured for the expressed, purified AgPEAOX by the methods described above. After incubating 609 μl of a reagent consisting of the composition of Table 5 at 37° C. for 5 minutes, 21 μl of a substrate solution (1500 mM EAP) was added and mixed, and the amount of change at A555 (ΔAS) per 1 minute at 37° C. was measured using the spectrophotometer (U-3900, manufactured by Hitachi High-Tech Science Corporation).
Next, 21 μl of ion-exchanged water was added instead of the substrate solution and mixed, and the amount of change at A555 (ΔA0) per 1 minute at 37° C. was measured. […]
The oxidase activity was calculated based on the following formula: Oxidase activity (U/ml)=(ΔAS−ΔA0)×630×df/(39.2×0.5×x)=32.1×(ΔAS−ΔA0)×df/x • 39.2: Millimolar extinction coefficient (mM^−1cm^−1) of 4-AA-TOOS Condensation dye for 555 nm-wavelength light • df: Dilution rate of enzyme solution (pH-Dependence Measurement of Catalytic Reaction of AgPEAOX)
When the pH dependence of catalytic reaction of AgPEAOX was measured, the activity was measured by replacing Bicine-NaOH buffer solution pH 8.5 contained in the reagent for activity measurement in Table 5 with a potassium phosphate buffer solution, MOPS-NaOH buffer solution, or Bicine-NaOH adjusted to a predetermined pH.

AgPEAOX: phenylethylamine oxidase derived from Arthrobacter globiformis, UniProt ID P46881, SEQ ID NO: 9
dehydrogenase activity of purified AgPEAOX solution [1]: 0.069 U/ml (*purified AgPEAOX solution) | oxidase activity of purified AgPEAOX solution ([2]; pH 8.5, final concentration of 50 mM EAP, 37° C.): 2.29 U/ml (*purified AgPEAOX solution) | optimum pH for the catalytic reaction (oxidase activity) ([2]; potassium phosphate, MOPS-NaOH or Bicine-NaOH buffers, FIG. 3): 8.5

From patent US11879149B2, “Quantification method of ethanolamine phosphate, oxidoreductase for quantification, composition for quantification, kit for quantification and sensor for quantification” (KIKKOMAN CORPORATION, priority 2018, dated 2024)
